In paper PMC5702604 (2017):

B1: Piezo1-GST fusion protein (mouse Piezo1) [mouse] / Flag-tagged SERCA2 (SERCA2b) [not stated] (parent complex)
chain 1: MEPHVLGAGLYWLLLPCTLLAASLLRFNALSLVYLLFLLLLPWLPGPSRHSIPGHTGRLLRALLCLSLLFLVAHLAFQICLHTVPHLDQFLGQNGSLWVKVSQHIGVTRLDLKDIFNTTRLVAPDLGVLLASSLCLGLCGRLTRKAGQSRRTQELQDDDDDDDDDDEDIDAAPAVGLKGAPALATKRRLWLASRFRVTAHWLLMTSGRTLVIVLLALAGIAHPSAFSSIYLVVFLAICTWWSCHFPLSPLGFNTLCVMVSCFGAGHLICLYCYQTPFIQDMLPPGNIWARLFGLKNFVDLPNYSSPNALVLNTKHAWPIYVSPGILLLLYYTATSLLKLHKSCPSELRKETPREDEEHELELDHLEPEPQARDATQGEMPMTTEPDLDNCTVHVLTSQSPVRQRPVRPRLAELKEMSPLHGLGHLIMDQSYVCALIAMMVWSIMYHSWLTFVLLLWACLIWTVRSRHQLAMLCSPCILLYGLTLCCLRYVWAMELPELPTTLGPVSLHQLGLEHTRYPCLDLGAMLLYLLTFWLLLRQFVKEKLLKKQKVPAALLEVTVADTEPTQTQTLLRSLGELVTGIYVKYWIYVCAGMFIVVSFAGRLVVYKIVYMFLFLLCLTLFQVYYTLWRKLLRVFWWLVVAYTMLVLIAVYTFQFQDFPTYWRNLTGFTDEQLGDLGLEQFSVSELFSSILIPGFFLLACILQLHYFHRPFMQLTDLEHVPPPGTRHPRWAHRQDAVSEAPLLEHQEEEEVFREDGQSMDGPHQATQVPEGTASKWGLVADRLLDLAASFSAVLTRIQVFVRRLLELHVFKLVALYTVWVALKEVSVMNLLLVVLWAFALPYPRFRPMASCLSTVWTCIIIVCKMLYQLKIVNPHEYSSNCTEPFPNNTNLQPLEINQSLLYRGPVDPANWFGVRKGYPNLGYIQNHLQILLLLVFEAVVYRRQEHYRRQHQQAPLPAQAVCADGTRQRLDQDLLSCLKYFINFFFYKFGLEICFLMAVNVIGQRMNFMVILHGCWLVAILTRRRREAIARLWPNYCLFLTLFLLYQYLLCLGMPPALCIDYPWRWSKAIPMNSALIKWLYLPDFFRAPNSTNLISDFLLLLCASQQWQVFSAERTEEWQRMAGINTDHLEPLRGEPNPIPNFIHCRSYLDMLKVAVFRYLFWLVLVVVFVAGATRISIFGLGYLLACFYLLLFGTTLLQKDTRAQLVLWDCLILYNVTVIISKNMLSLLSCVFVEQMQSNFCWVIQLFSLVCTVKGYYDPKEMMTRDRDCLLPVEEAGIIWDSICFFFLLLQRRIFLSHYFLHVSADLKATALQASRGFALYNAANLKSINFHRQIEEKSLAQLKRQMKRIRAKQEKYRQSQASRGQLQSKDPQDPSQEPGPDSPGGSSPPRRQWWRPWLDHATVIHSGDYFLFESDSEEEEEALPEDPRPAAQSAFQMAYQAWVTNAQTVLRQRRERARQERAEQLASGGDLNPDVEPVDVPEDEMAGRSHMMQRVLSTMQFLWVLGQATVDGLTRWLRAFTKHHRTMSDVLCAERYLLTQELLRVGEVRRGVLDQLYVGEDEATLSGPVETRDGPSTASSGLGAEEPLSSMTDDTSSPLSTGYNTRSGSEEIVTDAGDLQAGTSLHGSQELLANARTRMRTASELLLDRRLHIPELEEAERFEAQQGRTLRLLRAGYQCVAAHSELLCYFIIILNHMVTASAASLVLPVLVFLWAMLTIPRPSKRFWMTAIVFTEVMVVTKYLFQFGFFPWNSYVVLRRYENKPYFPPRILGLEKTDSYIKYDLVQLMALFFHRSQLLCYGLWDHEEDRYPKDHCRSSVKDREAKEEPEAKLESQSETGTGHPKEPVLAGTPRDHIQGKGSIRSKDVIQDPPEDLKPRHTRHISIRFRRRKETPGPKGTAVMETEHEEGEGKETTERKRPRHTQEKSKFRERMKAAGRRLQSFCVSLAQSFYQPLQRFFHDILHTKYRAATDVYALMFLADIVDIIIIIFGFWAFGKHSAATDIASSLSDDQVPQAFLFMLLVQFGTMVIDRALYLRKTVLGKLAFQVVLVVAIHIWMFFILPAVTERMFSQNAVAQLWYFVKCIYFALSAYQIRCGYPTRILGNFLTKKYNHLNLFLFQGFRLVPFLVELRAVMDWVWTDTTLSLSNWMCVEDIYANIFIIKCSRETEKKYPQPKGQKKKKIVKYGMGGLIILFLIAIIWFPLLFMSLIRSVVGVVNQPIDVTVTLKLGGYEPLFTMSAQQPSIVPFTPQAYEELSQQFDPYPLAMQFISQYSPEDIVTAQIEGSSGALWRISPPSRAQMKQELYNGTADITLRFTWNFQRDLAKGGTVEYTNEKHTLELAPNSTARRQLAQLLEGRPDQSVVIPHLFPKYIRAPNGPEANPVKQLQPDEEEDYLGVRIQLRREQVGTGASGEQAGTKASDFLEWWVIELQDCKADCNLLPMVIFSDKVSPPSLGFLAGYGIVGLYVSIVLVVGKFVRGFFSEISHSIMFEELPCVDRILKLCQDIFLVRETRELELEEELYAKLIFLYRSPETMIKWTRERE
chain 2: MENAHTKTVEEVLGHFGVNESTGLSLEQVKKLKERWGSNELPAEEGKTLLELVIEQFEDLLVRILLLAACISFVLAWFEEGEETITAFVEPFVILLILVANAIVGVWQERNAENAIEALKEYEPEMGKVYRQDRKSVQRIKAKDIVPGDIVEIAVGDKVPADIRLTSIKSTTLRVDQSILTGESVSVIKHTDPVPDPRAVNQDKKNMLFSGTNIAAGKAMGVVVATGVNTEIGKIRDEMVATEQERTPLQQKLDEFGEQLSKVISLICIAVWIINIGHFNDPVHGGSWIRGAIYYFKIAVALAVAAIPEGLPAVITTCLALGTRRMAKKNAIVRSLPSVETLGCTSVICSDKTGTLTTNQMSVCRMFILDRVEGDTCSLNEFTITGSTYAPIGEVHKDDKPVNCHQYDGLVELATICALCNDSALDYNEAKGVYEKVGEATETALTCLVEKMNVFDTELKGLSKIERANACNSVIKQLMKKEFTLEFSRDRKSMSVYCTPNKPSRTSMSKMFVKGAPEGVIDRCTHIRVGSTKVPMTSGVKQKIMSVIREWGSGSDTLRCLALATHDNPLRREEMHLEDSANFIKYETNLTFVGCVGMLDPPRIEVASSVKLCRQAGIRVIMITGDNKGTAVAICRRIGIFGQDEDVTSKAFTGREFDELNPSAQRDACLNARCFARVEPSHKSKIVEFLQSFDEITAMTGDGVNDAPALKKAEIGIAMGSGTAVAKTASEMVLADDNFSTIVAAVEEGRAIYNNMKQFIRYLISSNVGEVVCIFLTAALGFPEALIPVQLLWVNLVTDGLPATALGFNPPDLDIMNKPPRNPKEPLISGWLFFRYLAIGCYVGAATVGAAAWWFIAADGGPRVSFYQLSHFLQCKEDNPDFEGVDCAIFESPYPMTMALSVLVTIEMCNALNSLSENQSLLRMPPWENIWLVGSICLSMSLHFLILYVEPLPLIFQITPLNVTQWLMVLKISLPVILMDETLKFVARNYLEPGKECVQPATKSCSFSACTDGISWPFVLLIMPLVIWVYSTDTNFSDMFWS

Variants of: B1
Test: GST pull-down, western blot quantification; co-expressed Flag-SERCA2; repeated 3 times; mean ± s.e.m.; parent: 1; read off a plot

| Variant | ratio to parent |
| --- | --- |
| chain 1 K2182A, chain 1 K2183A, chain 1 K2184A, chain 1 K2185A | ~0.3 |
| chain 1 E2172A, chain 1 K2173A, chain 1 K2174A, chain 1 Y2175A, chain 1 P2176A, chain 1 Q2177A, chain 1 P2178A, chain 1 K2179A, chain 1 G2180A, chain 1 Q2181A | ~0.4 |
